Data: US20250262210A1 (TRUSTEES OF COLUMBIA UNIVERSITY IN THE CITY OF NEW YORK, published 2025)

Columns and labels:
Test in all cases: IP/MS, LZTR1 R810W-FLAG, U87
TRIM16 = TRIM16 (human, UniProt O95361 1-564, limits assumed)
Procedure, shortened: (§1)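 Gel slices were reduced with 5 mM DTT, alkylated with 11 mM IAA and digested overnight at 37° C. with trypsin. Peptides were analysed on an Orbitrap Fusion Tribrid by LC-MS/MS.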

IFT172 = IFT172 (human, UniProt Q9UG01 1-1749, limits assumed)
Procedure, shortened: as §1

ARHGAP31 = ARHGAP31 (human, UniProt Q2M1Z3 1-1444)
Sequence of ARHGAP31 (Q2M1Z3 whole entry): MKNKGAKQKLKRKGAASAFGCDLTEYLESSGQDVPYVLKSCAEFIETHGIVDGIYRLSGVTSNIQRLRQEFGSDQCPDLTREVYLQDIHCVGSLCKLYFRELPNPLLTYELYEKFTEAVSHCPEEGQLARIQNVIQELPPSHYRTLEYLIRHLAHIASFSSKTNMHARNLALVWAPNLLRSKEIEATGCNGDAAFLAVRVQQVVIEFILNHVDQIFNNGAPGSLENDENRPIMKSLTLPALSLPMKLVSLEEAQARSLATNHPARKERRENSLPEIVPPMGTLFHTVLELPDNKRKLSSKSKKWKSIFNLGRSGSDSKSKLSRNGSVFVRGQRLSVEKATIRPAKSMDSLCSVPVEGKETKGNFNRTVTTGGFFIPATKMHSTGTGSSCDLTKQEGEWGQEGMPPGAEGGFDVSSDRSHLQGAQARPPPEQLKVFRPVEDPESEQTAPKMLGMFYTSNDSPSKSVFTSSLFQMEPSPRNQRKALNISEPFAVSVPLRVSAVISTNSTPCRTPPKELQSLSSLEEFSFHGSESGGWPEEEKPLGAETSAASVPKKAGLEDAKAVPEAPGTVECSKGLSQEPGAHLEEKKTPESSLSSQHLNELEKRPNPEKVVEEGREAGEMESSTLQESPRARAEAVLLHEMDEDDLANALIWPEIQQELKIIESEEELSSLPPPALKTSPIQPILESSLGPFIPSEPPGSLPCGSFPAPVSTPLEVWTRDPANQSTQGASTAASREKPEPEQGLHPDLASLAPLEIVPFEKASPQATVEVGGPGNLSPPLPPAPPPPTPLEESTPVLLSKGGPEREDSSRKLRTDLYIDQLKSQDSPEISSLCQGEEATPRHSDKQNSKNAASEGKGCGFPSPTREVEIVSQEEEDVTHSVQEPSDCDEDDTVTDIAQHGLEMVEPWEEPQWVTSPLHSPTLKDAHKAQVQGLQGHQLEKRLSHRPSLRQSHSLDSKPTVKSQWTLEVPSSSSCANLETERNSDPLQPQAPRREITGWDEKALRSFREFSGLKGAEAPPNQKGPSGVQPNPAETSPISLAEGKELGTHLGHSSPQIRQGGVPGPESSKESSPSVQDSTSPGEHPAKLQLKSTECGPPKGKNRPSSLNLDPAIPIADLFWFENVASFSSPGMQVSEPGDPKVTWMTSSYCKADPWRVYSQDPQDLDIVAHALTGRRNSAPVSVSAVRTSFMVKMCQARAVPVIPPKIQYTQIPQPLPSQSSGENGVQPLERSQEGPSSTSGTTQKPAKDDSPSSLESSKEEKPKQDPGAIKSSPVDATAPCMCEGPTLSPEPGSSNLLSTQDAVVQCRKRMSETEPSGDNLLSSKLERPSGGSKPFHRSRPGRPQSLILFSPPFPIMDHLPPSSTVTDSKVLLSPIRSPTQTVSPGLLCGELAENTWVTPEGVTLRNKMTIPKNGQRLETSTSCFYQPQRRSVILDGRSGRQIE
Procedure, shortened: as §1

CC2D1A = target: T1, CC2D1A (human, UniProt Q6P1N0 1-951, limits assumed)
T1 sequence (looked up): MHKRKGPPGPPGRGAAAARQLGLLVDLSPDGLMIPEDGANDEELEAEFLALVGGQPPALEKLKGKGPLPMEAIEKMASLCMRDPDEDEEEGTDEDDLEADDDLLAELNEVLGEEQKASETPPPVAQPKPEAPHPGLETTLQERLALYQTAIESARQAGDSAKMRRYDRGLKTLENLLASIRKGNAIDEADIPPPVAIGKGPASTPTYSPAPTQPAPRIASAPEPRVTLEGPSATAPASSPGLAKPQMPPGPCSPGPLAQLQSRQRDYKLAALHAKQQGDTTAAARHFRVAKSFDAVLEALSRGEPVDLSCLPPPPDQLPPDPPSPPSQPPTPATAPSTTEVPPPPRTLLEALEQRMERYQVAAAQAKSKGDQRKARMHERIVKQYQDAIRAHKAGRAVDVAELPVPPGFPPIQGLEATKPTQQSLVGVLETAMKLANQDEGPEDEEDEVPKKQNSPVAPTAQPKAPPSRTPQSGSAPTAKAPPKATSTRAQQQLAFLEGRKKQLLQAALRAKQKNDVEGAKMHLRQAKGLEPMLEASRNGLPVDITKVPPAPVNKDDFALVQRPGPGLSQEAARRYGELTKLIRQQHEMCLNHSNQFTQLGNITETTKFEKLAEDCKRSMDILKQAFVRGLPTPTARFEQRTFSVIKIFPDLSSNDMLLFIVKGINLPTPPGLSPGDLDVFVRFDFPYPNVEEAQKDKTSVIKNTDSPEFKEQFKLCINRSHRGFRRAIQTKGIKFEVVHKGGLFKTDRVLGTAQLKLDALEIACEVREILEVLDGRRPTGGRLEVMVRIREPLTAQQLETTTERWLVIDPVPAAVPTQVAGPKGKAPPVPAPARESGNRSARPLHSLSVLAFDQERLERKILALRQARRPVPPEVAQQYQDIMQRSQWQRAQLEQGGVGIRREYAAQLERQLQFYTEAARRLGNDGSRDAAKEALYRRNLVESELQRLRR
Procedure, shortened: as §1

KIAA1217 = KIAA1217 (human, UniProt Q5T5P2 1-1943, limits assumed)
Sequence of KIAA1217 (Q5T5P2 whole entry): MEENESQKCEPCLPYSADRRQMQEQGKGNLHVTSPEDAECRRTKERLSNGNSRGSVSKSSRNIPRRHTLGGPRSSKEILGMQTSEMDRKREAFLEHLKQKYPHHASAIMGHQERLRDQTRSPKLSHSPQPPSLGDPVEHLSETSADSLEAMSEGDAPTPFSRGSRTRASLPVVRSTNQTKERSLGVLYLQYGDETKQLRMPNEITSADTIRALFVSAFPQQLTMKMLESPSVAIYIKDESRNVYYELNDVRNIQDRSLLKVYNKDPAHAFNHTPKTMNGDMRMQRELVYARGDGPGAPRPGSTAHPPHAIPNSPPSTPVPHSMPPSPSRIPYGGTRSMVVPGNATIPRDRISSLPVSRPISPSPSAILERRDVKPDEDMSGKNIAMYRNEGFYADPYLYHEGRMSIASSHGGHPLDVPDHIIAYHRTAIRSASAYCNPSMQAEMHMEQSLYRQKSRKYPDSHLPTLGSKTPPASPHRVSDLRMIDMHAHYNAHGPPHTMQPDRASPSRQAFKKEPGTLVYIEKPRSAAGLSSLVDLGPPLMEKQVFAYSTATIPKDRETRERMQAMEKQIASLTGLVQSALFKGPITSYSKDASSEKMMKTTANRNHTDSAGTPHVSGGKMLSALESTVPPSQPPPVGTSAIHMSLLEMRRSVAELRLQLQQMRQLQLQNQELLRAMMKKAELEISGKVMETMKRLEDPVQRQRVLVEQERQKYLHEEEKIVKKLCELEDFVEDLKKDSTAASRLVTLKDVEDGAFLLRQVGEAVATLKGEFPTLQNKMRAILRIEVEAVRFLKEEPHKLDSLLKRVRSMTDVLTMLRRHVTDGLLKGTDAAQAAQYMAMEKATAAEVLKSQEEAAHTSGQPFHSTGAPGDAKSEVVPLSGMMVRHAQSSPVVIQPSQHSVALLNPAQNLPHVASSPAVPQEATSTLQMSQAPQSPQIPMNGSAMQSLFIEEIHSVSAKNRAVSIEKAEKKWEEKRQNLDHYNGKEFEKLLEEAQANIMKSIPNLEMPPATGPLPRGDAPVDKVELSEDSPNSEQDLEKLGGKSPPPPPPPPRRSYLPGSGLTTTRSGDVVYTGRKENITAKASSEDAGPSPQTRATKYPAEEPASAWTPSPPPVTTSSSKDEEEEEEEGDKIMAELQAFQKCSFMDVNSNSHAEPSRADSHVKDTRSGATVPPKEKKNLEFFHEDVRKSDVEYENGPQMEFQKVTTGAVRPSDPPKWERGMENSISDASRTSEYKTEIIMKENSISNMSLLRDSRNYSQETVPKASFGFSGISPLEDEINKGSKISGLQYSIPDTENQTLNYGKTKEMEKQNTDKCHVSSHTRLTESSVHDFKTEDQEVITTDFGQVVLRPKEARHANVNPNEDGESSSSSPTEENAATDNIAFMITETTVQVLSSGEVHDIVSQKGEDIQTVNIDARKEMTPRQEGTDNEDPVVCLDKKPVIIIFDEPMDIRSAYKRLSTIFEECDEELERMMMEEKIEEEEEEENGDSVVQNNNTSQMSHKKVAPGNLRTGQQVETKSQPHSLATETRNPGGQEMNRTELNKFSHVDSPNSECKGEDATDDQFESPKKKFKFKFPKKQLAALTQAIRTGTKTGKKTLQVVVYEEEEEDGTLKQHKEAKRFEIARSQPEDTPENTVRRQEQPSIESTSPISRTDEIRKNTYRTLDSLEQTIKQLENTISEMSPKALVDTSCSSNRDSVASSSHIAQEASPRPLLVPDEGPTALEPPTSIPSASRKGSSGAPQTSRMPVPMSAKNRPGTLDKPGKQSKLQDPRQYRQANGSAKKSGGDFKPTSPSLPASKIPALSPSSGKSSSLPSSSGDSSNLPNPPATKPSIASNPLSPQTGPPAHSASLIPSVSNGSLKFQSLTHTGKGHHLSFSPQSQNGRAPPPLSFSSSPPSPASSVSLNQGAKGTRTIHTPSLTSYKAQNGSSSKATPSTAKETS
Procedure, shortened: as §1

Measured: binding result

Sequence of IFT172 (Q9UG01 whole entry): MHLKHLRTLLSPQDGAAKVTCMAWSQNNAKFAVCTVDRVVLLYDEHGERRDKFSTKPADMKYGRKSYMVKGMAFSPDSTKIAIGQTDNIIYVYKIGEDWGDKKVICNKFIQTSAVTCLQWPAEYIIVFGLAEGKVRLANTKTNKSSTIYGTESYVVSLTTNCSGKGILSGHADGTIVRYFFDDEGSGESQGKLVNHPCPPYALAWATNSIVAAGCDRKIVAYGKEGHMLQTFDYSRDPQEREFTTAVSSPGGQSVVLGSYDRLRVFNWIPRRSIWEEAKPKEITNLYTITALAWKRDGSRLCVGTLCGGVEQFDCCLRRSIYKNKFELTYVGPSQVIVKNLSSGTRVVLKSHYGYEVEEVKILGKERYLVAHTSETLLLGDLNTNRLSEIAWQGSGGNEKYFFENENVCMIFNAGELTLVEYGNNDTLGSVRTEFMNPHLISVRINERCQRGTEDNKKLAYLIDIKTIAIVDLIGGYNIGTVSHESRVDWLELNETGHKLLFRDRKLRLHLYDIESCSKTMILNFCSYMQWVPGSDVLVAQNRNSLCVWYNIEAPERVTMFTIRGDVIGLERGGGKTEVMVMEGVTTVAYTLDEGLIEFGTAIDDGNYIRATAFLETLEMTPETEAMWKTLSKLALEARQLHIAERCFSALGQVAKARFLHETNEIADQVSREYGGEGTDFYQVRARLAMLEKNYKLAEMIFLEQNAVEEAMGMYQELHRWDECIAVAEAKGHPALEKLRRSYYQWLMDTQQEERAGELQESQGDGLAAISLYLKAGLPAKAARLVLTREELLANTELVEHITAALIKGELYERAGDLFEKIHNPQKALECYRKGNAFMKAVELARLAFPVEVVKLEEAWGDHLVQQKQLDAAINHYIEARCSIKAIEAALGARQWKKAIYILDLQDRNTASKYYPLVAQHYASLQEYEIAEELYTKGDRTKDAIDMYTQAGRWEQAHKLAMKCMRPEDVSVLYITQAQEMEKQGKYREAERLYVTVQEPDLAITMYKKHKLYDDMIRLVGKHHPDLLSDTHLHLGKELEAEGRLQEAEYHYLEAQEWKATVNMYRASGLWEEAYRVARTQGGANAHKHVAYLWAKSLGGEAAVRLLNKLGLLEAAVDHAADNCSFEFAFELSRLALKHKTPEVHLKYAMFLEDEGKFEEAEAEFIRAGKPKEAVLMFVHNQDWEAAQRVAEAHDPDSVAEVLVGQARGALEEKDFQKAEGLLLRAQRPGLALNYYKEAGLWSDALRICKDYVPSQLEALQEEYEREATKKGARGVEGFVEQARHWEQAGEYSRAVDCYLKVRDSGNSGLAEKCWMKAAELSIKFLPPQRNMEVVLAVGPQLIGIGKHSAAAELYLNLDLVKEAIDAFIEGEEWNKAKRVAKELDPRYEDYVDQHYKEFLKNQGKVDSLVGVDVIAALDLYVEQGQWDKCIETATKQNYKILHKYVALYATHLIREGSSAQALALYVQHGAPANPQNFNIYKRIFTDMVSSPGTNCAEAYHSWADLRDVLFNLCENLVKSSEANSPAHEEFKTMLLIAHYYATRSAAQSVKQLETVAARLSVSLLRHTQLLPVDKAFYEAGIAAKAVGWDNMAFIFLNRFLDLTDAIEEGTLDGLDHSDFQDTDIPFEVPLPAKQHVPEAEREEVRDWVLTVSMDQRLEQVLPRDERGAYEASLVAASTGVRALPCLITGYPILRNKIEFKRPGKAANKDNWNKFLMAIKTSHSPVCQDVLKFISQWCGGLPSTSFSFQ

B1: LZTR1 R810W-FLAG (other, human, UniProt Q8N653 1-840, looked up)
chain: MAGPGSTGGQIGAAALAGGARSKVAPSVDFDHSCSDSVEYLTLNFGPFETVHRWRRLPPCDEFVGARRSKHTVVAYKDAIYVFGGDNGKTMLNDLLRFDVKDCSWCRAFTTGTPPAPRYHHSAVVYGSSMFVFGGYTGDIYSNSNLKNKNDLFEYKFATGQWTEWKIEGRLPVARSAHGATVYSDKLWIFAGYDGNARLNDMWTIGLQDRELTCWEEVAQSGEIPPSCCNFPVAVCRDKMFVFSGQSGAKITNNLFQFEFKDKTWTRIPTEHLLRGSPPPPQRRYGHTMVAFDRHLYVFGGAADNTLPNELHCYDVDFQTWEVVQPSSDSEVGGAEVPERACASEEVPTLTYEERVGFKKSRDVFGLDFGTTSAKQPTQPASELPSGRLFHAAAVISDAMYIFGGTVDNNIRSGEMYRFQFSCYPKCTLHEDYGRLWESRQFCDVEFVLGEKEECVQGHVAIVTARSRWLRRKITQARERLAQKLEQEAAPVPREAPGVAAGGARPPLLHVAIREAEARPFEVLMQFLYTDKIKYPRKGHVEDVLLIMDVYKLALSFQLCRLEQLCRQYIEASVDLQNVLVVCESAARLQLSQLKEHCLNFVVKESHFNQVIMMKEFERLSSPLIVEIVRRKQQPPPRTPLDQPVDIGTSLIQDMKAYLEGAGAEFCDITLLLDGHPRPAHKAILAARSSYFEAMFRSFMPEDGQVNISIGEMVPSRQAFESMLRYIYYGEVNMPPEDSLYLFAAPYYYGFYNNRLQAYCKQNLEMNVTVQNVLQILEAADKTQALDMKRHCLHIIVHQFTKVSKLPTLWSLSQQLLLDIIDSLASHISDKQCAELGADI
notes: Stably expressed in U87 cells by lentivirus; also called LZTR1-FLAG-R810W; LZTR1 RW; not shown: FLAG tag
binds: TRIM16 | IFT172 | ARHGAP31 | CC2D1A | KIAA1217
